Assay results taken from paper PMC6589562.

Molecular target: spoke HSP40 (His-tagged recombinant HSP40) (Chlamydomonas reinhardtii)
Assay: AUC

spoke HSP40 (His-tagged recombinant HSP40) (natural protein)
stoichiometry N: 2
